Test results reported in the DeepSol protein solubility set.

experiment: soluble on expression in E. coli; label from the status in PepcDB or PDB records

Sequence	soluble on expression in E. coli
MAHHHHHHMDNSIKIKSAFLKENVGVKITGPCDEGFGLVMVPHIIINVDTRNTDIQLGKKSSEINYGIKLRKKGKDEYEEKVGIDLLKNVCETGKNFKFVAYIKGDELIIKWKVIEEGNIPIDIKKFKIKRMSPPITSIQVFSSMSDEKSFVLENKNYVVTNNMPEKCEALATNCFLSGNIDIEKCYQCSLLVENDSKSDVCYNFISRENKEKLNEERFKVKGSTEYEESVESELKGAIDLLISSFYKSDGENGENVLISFEDLNSTLEDDIINFCSLLKLVDLSGTFMNHQIGTTADAFNNIVKLLKEHKEEDEFVLRTKLRNPALCMKNVDDWVKSRCGLLTSDDSYVVIKKNSDTNGKNENNESNDEEYDGVIDLSTNENGNVKSIQFNDDIYCNDDYCNRWKNENNCISKIGVEDQGNCASSWAFASKLHFETLRCMKGYDHLGISALYLTNCSKGKISKRCTEGGNPSEFLEIVSNSGFLPTEFDYPYFYALVENSCPSGLNKWINLWEDVKLFDYKYEPNSIGSKGYSVYKSEMFKDNMDEYVKMIKSEIKNKGSVIAYINAQSVLTYDFNGKNILNMCGSKTTDHSINVIGYGHYKNKEGEEKSYWLVRNSWGYYWGDEGNFKVDMYGPSNCNYHFINTVLVFNIDIPMMNNNENNKKGLYNYFPKYTHEFYHNFYDQNFGSDNKISLINSNGSNKNDVNNAYTVHGQSGETEVQPSQLRSTANQDSNRGAVTSDPLRTQPETTSTSVKKMDVFQVLKHVKNSKIKVGLIKYDNDDEIGAHHSCTRAYSFDPEKYDECVEFCRKNWEQCKDKPSPGFCLTKLDESKGCFFCYV	not soluble
MNSLILGAARRFVGLHLRVSVNLLQNESFSSYSFSSASAADVSPKGETFKSSSFLDSLRLATKLTDKGNSDSVLDLLRSYGFTDSQISSIIRSDSRVLIDNDATSLGSKLQFLQSRGASSSELTEVVSTVPKILGKREGKSLSRYYDFIKVIIEADKSSKYEKISHSLAQGNKIRNILVLRELGVPQKRLLLLLISKSQPVCGKEKFDASLKKVVEMGFDPTTSTFVHALHMLYQMSDKTIEEKIRVYRSVGFSVDDVWAMFKKWPRSLTHSEKKVANSIETFLGLGFSRDVFMMMFKRFPPCIGYSTEAVKKKTEFLVKEMNWPVKAVASIPQVLGYSLEKRTVPRCNVIKVLMSKGLLESELPPMSSVLTSTSESFLNLYVSKHDDKQLVAELMAIFTGNRVSLTDQKARLEQ	soluble
MSLAPALKAEILAQALPYIRKFHGKTIVIKYGGNAMTEEKLKHGFARDVILLKLVGMNPVVVHGGGPQIDDALKKVGKTGTFIQGMRVTDEETMEVVEWVLGGEVQQDIVMLINQYGGQAVGLTGKDGGLIRAKKLKMPDREQPGQFIDIGFVGDIETINPAVVRALQDDAFIPVISPIGFSDDGQAYNINADVVAGKMAEILKAEKLVMMTNIPGVMDKQGNLLTDLSAREIDELFADGTISGGMLPKISSALDAAKSGVNSVHIIDGRIEHSLLLEILTEQAFGTMIRSHEGHHHHHH	not soluble
MSLRRIGITQRLLETREYIETREALDVRWGELFYHLSWGMIPLSYAVPLEVYIKEFALEGVILSGGNDLNDFVSSPLNKKRDAYEKEILRYAKQYAFPLLGVCRGAQMIAYEGGSLLEFCEGHVGRHEIFWEEGEGEIIGSEHQLAIKELGAGLIPLARSCEGLVEAFRGEEAPLFGMMWHPERQDKRSAGTLKMVELFSQALQKREGHHHHHH	soluble
AVPFVEDWDLVQTLGEGAYGEVQLAVNRVTEEAVAVKIVDMKRAVDCPENIKKEICINKMLNHENVVKFYGHRREGNIQYLFLEYCSGGELFDRIEPDIGMPEPDAQRFFHQLMAGVVYLHGIGITHRDIKPENLLLDERDNLKISDFGLATVFRYNNRERLLNKMCGTLPYVAPELLKRREFHAEPVDVWSCGIVLTAMLAGELPWDQPSDSCQEYSDWKEKKTYLNPWKKIDSAPLALLHKILVENPSARITIPDIKKDRWYNKPLKKG	soluble
MTAYINQEAAAKLDEVFPLAELALKAYGPEFQGELSLLTHSENSTYLVNAFSGQRFVMRVHRAHYHSRTAIESELAWLDALADEGMEVPKAIAGRDGAKVQTIGDGHAERREVVLFHWINGYQPDQSQQESLIQGFRRLGEITAGLHIHARQWQRPHWFERRLMVGAHAAWGNWQKAPYLDKPGAAIIGKALDKVRMELNEYGNAADLFGLIHADLRLTNLLVEEEITRIIDFDDCGFSWFMHDLAAAVSFIEHSPCLNEWVGSWVNGYSTVLPLSAADHAVIPALITQRRVQLLAWTGTHQGAPQADGLGNIWVVQTIELCEKYLANTLLDCKSIS	not soluble
MHIEEKTTQLQDQQQVSITIYNENLALVRDLRHVPLEKGINKLAWCDVSAQIRPETALLRTPEKTSSIRMVEQNFDFDLLTPEKLLEKYLGRSVNVIYVNPATGAETVEAAIVLSISGGVVLKFKDRIETGTPGRIAFPDVPGSLHDHPTLSLVLDGATPGKHELELSYLTSGLSWQADYVARLDANDGRLDLSGLVTLANHSGIAYPDAHLQLVSGEVNQVTPEPPQARKMMAMVADAAEYQAVREESLSEYHLYSLPVPTTLAENQSKQITLMSVTDIPVSQEFLLRGTNAYYFSRYSNLDDKLKPVVLIQFKNEGEGLGVPLPRGTIRVYQNDSRDNLQFLGEDHIDHTAKNEEVRVKLGKATDITAMRTQTDFQQLDTPSRRFTETATDITAMRTQTDFQQLDTPSRRFTETAHQIEIHNARQEAVTIRVQEPIPGDWMMISESQPHTKSSANLVEWLVKVPTNQKTILSYRVRIKHLEHHHHHH	not soluble
MIGELVKDKILIKNIEDARLIYKMGYYGKPIGISKPKSAEEINSELILSLIEGVYLVKKGKLEIVSNGERLDFERLYQIGVTQIPRFRILYSVYEDLREKGYVVRSGIKYGADFAVYTIGPGIEHAPYLVIALDENSQISSNEILGFGRVSHSTRKELILGIVNLTNGKIRYIMFKWLKM	soluble
MGSDKIHHHHHHAQTYQQLSEKAIEYIEMDSLSKAEELLLQALKLEPKNAKNAMLFSNLGLVQRRLGEYDKALESYSFALNFAPLAVPILLDRAAINLEMGNTDRAYTDYCQVLDEDKQNKEALLMRAYIYVLRRDYPAARIDYNRLLEIDPQSYSGRLGLATLEQKEGKFKEALEILNKMITATPEDATLYIARADVEREMKHEDLALVDLEEAIRLNPSSADAYLLRGNIYLTQKKKALAKMDFEKAISLGIPPADLHEQLKQCK	not soluble
SYIDIPPEGSETKNRHNANNPSDVLVIENKHLTKEWPSGGQMMVNNLTAKYTSDGRAVLQDLSFSVNAGQRVGLLGRTGAGKSTLLSALLRLLSTEGEIQIDGISWNSVSLQKWRKAFGVIPQKVFVFSGTFRKNLDPYEQWSDEEIWKVTEEVGLKSMIEQFPDKLNFVLVDGGYILSNGHKQLMCLARSILSKAKILLLDEPTAHLDPVTFQIIRKTLKHTFSNCTVILSEHRVEALLECQQFLVIEGCSVKQFDALQKLLTEASLFKQVFGHLDRAKLFTAHRRNSSKRKTRPKISALQ	not soluble
MKYNTMNNDEIILSLCARLKETRLSLSMTQQQLADRAHVGIATIKRIEKGGGLNLDTLISLLRALDKLHNLDAVLFESELRNFHESYEGGEGSGRLQVRQQAADLNNKSSAPQSEEVNYSAALENSLCW	not soluble
MSFGYLIATSQPCELLTKSRGETFSLIMDKMDLWIYFRFCEGNIYTIRKNETESCLTERGGEWLKHIYEFNRGSFIFSYVLLKKRESEENFTEIVLKSIKNNKILTVKVRSGLHFDLRNIYRIEM	not soluble
MGSDKIHHHHHHMAKDIEISASESKFILEALRQNYRLDGRSFDQFRDVEITFGKEFGDVSVKMGNTKVHCRISCQIAQPYEDRPFEGLFVISTEISPMAGSQFENGNITGEDEVLCSRIIEKSVRRSGALDVEGLCIVAGSKCWAVRADVHFLDCDGGFIDASCIAVMAGLMHFKKPDITVHGEQIIVHPVNEREPVPLGILHIPICVTFSFFNPQDTEENIKGETNSEISIIDATLKEELLRDGVLTVTLNKNREVVQVSKAGGLPMDALTLMKCCHEAYSIIEKITDQILQLLKEDSEKRNKYAAMLTSENAREI	not soluble
MSLKGAQILVVEDELIVGMMIKLKLAKMGYCVSCMASTGADAVAMVEKVRPELVLMDIRLKGSLDGVEAAMMIRKISNIPIVFITADSSLETRERAELACPQGFLLKPFMDEELGSLVRSVFSNSMGGASAVNANEGHHHHHH	not soluble
MIDLLQADGNALPSAVKLAYSPASKTFESYRVMTQVHTNDATKKVIVKLADTPQLTDVLNSTVQMPISVSWGGQVLSTTAKEFEAAALGYSASGVNGVSSSQELVISAAPKTAGTAPTAGNYSGVVSLVMTLGSDNKQVEKNITVTASVDPVIDLLQADGNALPSAVKLAYSPASKTFESYRVMTQVHTNDATKKVIVKLADTPQLTDVLNSTVQMPISVSWGGQVLSTTAKEFEAAALGYSASGVNGVSSSQELVISAAPKTAGTAPTAGNYSGVVSLVMTLGSDNKQVEKNITVTASVDPVIDLLQADGNALPSAVKLAYSPASKTFESYRVMTQVHTNDATKKVIVKLADTPQLTDVLNSTVQMPISVSWGGQVLSTTAKEFEAAALGYSASGVNGVSSSQELVISAAPKTAGTAPTAGNYSGVVSLVMTLGSDNKQVEKNITVTASVDPVILEHHHHHH	soluble
MCLILTAWHAHPAYALVVAANRDEFYDRPAAPLAWWSDAPHVLAGRDLAQVVGHAGTWMGMTRDGRFAALTNYRAPSERRPDARSRGELVANFLAAEDASIPAYLDQLKARNGVYNGYNLLTATRDELWWTSNRAEAPRQLAPGVYGLSNALLDTPWFKVRHRVAAFAEALAADTGRHGNAIDVARYLDLLAETREAPLGALPATGVAPEWEKLLSAAFIRSPRYGTRASTVLRIRHDGCFDVTERRFDAQGQIGETRYLGVLDAVTQADTPLEHHHHHH	not soluble
MAHHHHHHMIPHICVNAANYSHTQFEECLTHMCDLSEELSAFKRTAVSLKRQATGDAETSKLALQYMEEALEKVLHVTQGVKEGNKTIGTAAAVKKSVIEAKIASDIADEEASKVERKLDKATRDAGNAEKNLQRILIYTARKACSSEGISSQDEEVKEAQCNVSTEIVYSCTRRPLKIKSDTLRKTYERLKSFTRTPNKTINEHLPKCHMWTELLEPAVASLTDMEKSASVARAYRNQVIKARGEAQQAAWTVGVTVQDVDGLDEVSEEDDFALAPVVLVAVLIVGAVLIDQHP	not soluble
MGSDKIHHHHHHMPTNVTAEYLAAEEEYRNAKTIPEKIRALEKMYALVPKHKGTEKLRLQIKRKLAELRKELEKQRQQRKGGGYSLAVKKEGAAQIVLVGLPNVGKSELLKALTGVDVESADYPFTTTEPVPAMLNYKDVQIQLVEVPGLIEGAALGKGMGPQLLAVVRNADAIAIVVDLSEDPVRQMNILLQEFERAGIKVNKKKPKVEIRKTPSGGIVINGIENIKGDIDEVMKMLREEKIHSAEITVMEPVTLEEFADALDDSLVWKKAIIIANKGDAPGSRANYEKLVKAFGERFKIIPVSAKKRINLEAVKEAIYEIADIIRVFTKSPGEEPAYPPIALRKGATVQDVAERIHKDLVKNFKYARVWGKSVKFPGQRVGLDHVLEDGDIVEIHAR	not soluble
